The results in this text go back to patent CN106749656A (UNIV ZHENGZHOU NORMAL, dated 2017).

Assay [1] addresses T1, 小鼠重组RCN3蛋白 (mouse, UniProt Q8BH97 21-328, limits assumed).
T1 construct: Recombinant mouse RCN3 used as coating antigen and in the Western blot; GST and BSA were run as control antigens; also called 小鼠RCN3蛋白; 重组小鼠RCN3蛋白
T1 sequence (looked up): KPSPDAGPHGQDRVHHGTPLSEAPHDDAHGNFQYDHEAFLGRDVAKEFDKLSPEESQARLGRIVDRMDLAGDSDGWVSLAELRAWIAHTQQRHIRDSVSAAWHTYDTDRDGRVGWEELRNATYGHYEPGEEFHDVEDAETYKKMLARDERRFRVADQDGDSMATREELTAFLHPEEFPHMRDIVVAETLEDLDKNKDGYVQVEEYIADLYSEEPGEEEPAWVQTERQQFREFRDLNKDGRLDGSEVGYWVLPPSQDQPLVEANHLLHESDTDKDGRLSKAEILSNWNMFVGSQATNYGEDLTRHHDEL
In words: phage ELISA, plate coated with 3 μg/mL mouse RCN3 (GST and BSA as controls), HRP anti-M13. A general note: ELISA stands for enzyme-linked immunosorbent assay.

The target in assay [2] is T1, 小鼠重组RCN3蛋白. Nature of the assay: ELISA, plate coated with 3 μg/mL mouse RCN3 (GST and BSA as controls), ScFv-Fc as first antibody, HRP goat anti-human IgG.

B1: 全人源抗小鼠RCN3蛋白单链ScFv抗体的噬菌体克隆 (scFv)
scFv: ELQMTQSPSSLSASVGDRVTITCQASQDITYHLNWYQQKPGKAPKLLIYDASNLVTGVPSRFSGSGSGTDFTVTISSLQPEDFATYYCQHYYNRPPTFGQGTRLEIKGGSSRSSSSGGGGSGGGGQVQLVQSGGGVVQPGRSLRLSCAASGFTFSSYGMHWVRQAPGKGLEWVAVISYDGSNKYYADSVKGRFTISRDNSKNTLYLQMNSLRAEDTAVYYCARDLGTHAFDIWGQGTMVTVSS
notes: The scFv stood on the surface of M13 phage in the assay; also called 单克隆噬菌体
On to B1, for which the binding result with 小鼠重组RCN3蛋白 [1] is given as “binds”.

B2: 全人源抗小鼠RCN3带有Fc标签的单链ScFv抗体 (Fc fusion)
scFv: B1 scFv
notes: also called ScFv-Fc抗体; 抗小鼠RCN3蛋白ScFv-Fc抗体; not shown: Fc tag from the eukaryotic expression vector pFUSERTL1
For the molecule B2, the binding result with 小鼠重组RCN3蛋白 [2] is on record as “binds”.
